Laboratory results taken from the DeepSol protein solubility set.

experiment: soluble on expression in E. coli; label from the status in PepcDB or PDB records

Sequence | soluble on expression in E. coli
MGSDKIHHHHHHMETKDLIVIGGGINGAGIAADAAGRGLSVLLLEAQDLACATSSASSKLIHGGLRYLEHYEFRLVSEALSERETLLKMAPHIIFPMRFRLPHQPHLRPAWMIRIGLFMYDNIGKRVSLPASKGLKFGADSVLKPELKQGFEYSDCWVDDARLVVLNAQEVAKRGGEVRTRTKVTRARREQGVWIVDAVDSLTGETFTWRAKGLVNATGPWVKEFFDDGLQLKSPYGIRLIKGSHIVVPRVHNQPQAYILQNKDHRIVFVIPWQDDYSIIGTTDVEYKGNPHDVKIDDNEVGYLLDVYNDHFKQQLTRDDIVWTYSGVRPLCDDESDSPQAITRDYTLSVDDDNGQAPLLSVFGGKLTTYRKLAEHALDKLHKYYPQAGKAWTKDAVLPGGDIAGTRDDYAAALRRRFNLPESLTRRYSRTYGSNSELILANVKGLSDLGEDFGHDLYEAELRYLVEKEWAVTLDDVIWRRTKLGMRFDDAQKQRISDWLVSYRQQQMAKAG | not soluble
MDYREVDSTSEFVCRLEHGGDWRAQIEAFADEQGIDAGFFYGLGAVQDAELMFYDQDRTEYDSLTFDEPLEVAACMGNISHFDGERFAHTHAVLSRPDGEAVAGHLNAGTVWAGELYVRGFDTELQREHDEPTDLDLWNILEHHHHHH | not soluble
MGSDKIHHHHHHMLYPVKLLKDLVQIKTANPPGSEYESISFYLKDLFNDLGFQIQLIEIPEEYMDKYYIYSPSHKGNKRIIVIAKNSPNPILHFNFHYDVVPPGDGWLTNPFELKVVDNKAYGRGTSDMKGSIVSLYLALSRFNDLPIEIVFVPDEESGGIGTKYLTEEIRIAPSTAIFGEPSFPNVYIGHLGIVRGIIKIFGKQAHASNPKDGINAFLLASKLALKLQEKLGNEIVNLGGYTLNPTNNDGIVPGFFAFSYYRAIPPHDNRTPEFDKNVIDTTAREVGIEYNFEIKSFISGSVSNPDSSVAKAFKFCITSTLNVVPKELISNIRYDAVFYKNLDSINFGPGSLDQAHVPNEYVELDNIEKTIVIYECVMKRIYFNNYR | not soluble
MAWSRVGDNIATHPLMSRLLTSCEFDHSLKNEAFGALVQLTTVSAAHLTDYIIEYGLMAQIAPGREKQLIDVLVDAGMLFRDEVDGRKVLRIVDDNELLHNRSRDEVEIDRRRAADKRNPALIPAVRYRDGDQCRWCGRTVDWRDRKGGRAATIDSLNEHRESTVDTLVVACKSCNSKRGAGEELQLLPTPTREKVHYTDHTIDWINRSEWAQHEGIHLEPRQTHLDIGQQITTPAAPSEQQQVGQAAAPLEAAARAHRAAPDVEAPFVSDPLDEAPDWVKQSLVNDHGQAAAPLMAAAPREHDHAPAAPSEQQQVGQAAAPLEAAARAHRAAPDVEAPPQHHVDNETVKPSTDLEQITDRWGDGSRSLGTGRDGNGQVGTARRRRRRRRGGRGTGRNKAHG | not soluble
MEGGMKRVVLAFGTRPEATKMAPVYLALRGIPGLKPLVLLTGQHREQLRQALSLFGIQEDRNLDVMQERQALPDLAARILPQAARALKEMGADYVLVHGDTLTTFAVAWAAFLEGIPVGHVEAGLRSGNLKEPFPEEANRRLTDVLTDLDFAPTPLAKANLLKEGKREEGILVTGQTGVDAVLLAAKLGRLPEGLPEGPYVTVTMHRRENWPLLSDLAQALKRVAEAFPHLTFVYPVHLNPVVREAVFPVLKGVRNFVLLDPLEYGSMAALMRASLLLVTDSGGLQEEGAALGVPVVVLRNVTERPEGLKAGILKLAGTDPEGVYRVVKGLLENPEELSRMRKAKNPYGDGKAGLMVARGVAWRLGLGPRPEDWLP | soluble
TPVSEKQLAEVVANTVTPLMKAQSVPGMAVAVIYQGKPHYYTFGKADIAANKPVTPQTLFELGSISKTFTGVLGGDAIARGEISLDDPVTRYWPQLTGKQWQGIRMLDLATYTAGGLPLQVPDEVTDNASLLRFYQNWQPQWKPGTTRLYANASIGLFGALAVKPSGMPYEQAMTTRVLKPLKLDHTWINVPKAEEAHYAWGYRDGKAVRAVRVSPGMLDAQAYGVKTNVQDMANWVMANMAPENVADASLKQGIALAQSRYWRIGSMYQGLGWEMLNWPVEANTVVEGSDSKVALAPLPVAEVNPPAPPVKASWVHKTGSTGGFGSYVAFIPEKQIGIVMLANTSYPNPARVEAAYHILEALQ | soluble
PDGDFVDLAWSEDPHQARHKPRLVVFHGLEGSLHSPYAHGLIHAAMQRGWLGVVMHFRGCSGEPNRNHRIYHSGETEDGTWFLHWLKREFGPAPTAAVGYSLGGNMLGCLLAEEGDRCPLDAAVIVSAPFMLEACSYHMDKGFSRVYQRYLLNLLKANASRKLKAYPGSLPVDLRQLKGMRRIREFDDMITAKIHGFADALDYYRQCSAMPRLSDITKPTLIIHAKDDPFMDHHSIPPQEQLPANVEYQLTEQGGHVGFVSGTLRKPEMWLERRIPDWLNRWLE | not soluble
MLSEGTHLRPYETLGAHADTMDGVTGTRFSVWAPNARRVSVVGQFNYWDGRRHPMRLRKESGIWELFIPGAHNGQLYKYEMIDANGNLRLKSDPYAFEAQMRPETASLICGLPEKVVQTEERKKANQFDAPISIYEVHLGSWRRHTDNNFWLSYRELADQLVPYAKWMGFTHLELLPINEHPFDGSWGYQPTGLYAPTRRFGTRDDFRYFIDAAHAAGLNVILDWVPGHFPTDDFALAEFDGTNLYEHSDPREGYHQDWNTLIYNYGRREVSNFLVGNALYWIERFGIDALRVDAVASMIYRDYSRKEGEWIPNEFGGRENLEAIEFLRNTNRILGEQVSGAVTMAEESTDFPGVSRPQDMGGLGFWYKWNLGWMHDTLDYMKLDPVYRQYHHDKLTFGILYNYTENFVLPLSHDEVVHGKKSILDRMPGDAWQKFANLRAYYGWMWAFPGKKLLFMGNEFAQGREWNHDASLDWHLLEGGDNWHHGVQRLVRDLNLTYRHHKAMHELDFDPYGFEWLVVDDKERSVLIFVRRDKEGNEIIVASNFTPVPRHDYRFGINQPGKWREILNTDSMHYHGSNAGNGGTVHSDEIASHGRQHSLSLTLPPLATIWLVREAE | soluble
MAISVVDLFSIGIGPSSSHTVGPMRAALTYISEFPSSHVDITLHGSLAATGKGHCTDRAVLLGLVGWEPTIVPIDAAPSPGAPIPAKGSVNGPKGTVSYSLTFDPHPLPEHPNAVTFKGSTTRTYLSVGGGFIMTLEDFRK | not soluble
MPSLQDLYAAFRRIAPYTHRTPLLTSRLLDGLLGKRLLLKAEHLQKTGSFKARGALSKALALENPKGLLAVSSGNHAQGVAYAAQVLGVKALVVMPEDASPYKKACARAYGAEVVDRGVTAKNREEVARALQEETGYALIHPFDDPLVIAGQGTAGLELLAQAGRMGVFPGAVLAPVGGGGLLAGLATAVKALSPTTLVLGVEPEAADDAKRSLEAGRILRLEAPPRTRADGVRTLSLGERTFPILRERVDGILTVSEEALLEAERLLFTRTKQVVEPTGALPLAAVLEHGARLPQTLALLLSGGNRDFSP | soluble
SNAMSVVIYHNPKCSKSRETLALLENQGIAPQVIKYLETSPSVEELKRLYQQLGLNEVRAMMRCKEELYKELNLGDSQLSDDALFAAMAEHPKLIERPIVVCNGQARHGRPPEQVLEIL | soluble
MGSDKIHHHHHHMTPTYDTLIIGAGIAGASLGYRLAGQQRVLLVERESQPGYHSTGRSAAMFMEAYGTPQIQALTRASRAFYEAPPQGFCEHPLLEPRGCLYVASLEQRELLEQTFAQNLANGTEVTLLDRDAALALIPSLRGETLAGAVLEPGAMDLDVHALHQGFLRGYRTAGGELRCNAELIQACYLDDVWQVELADGSRLQARCLVNAAGAWADRVAEQCGVARIGLQPCRRSAFTFPGPAEQDFTRWPAVIGVDESFYFKPDAGQLLGSPANADPVEPQDAAPEEFDVALGIYNIEAMTTLAIRRPSHTWAGLRSFVADGDLVIGFDAHAPAFFWLAAQGGYGIQSAAGASRLAADLLLGQPLCASLVSQGVAPERLSPARFQQP | not soluble
QELPTDLSEVFVDFSKEPLASGSVAQTHRARLLSGQEVIIKIQRPGIDDIVKEDIQLLIKLARHIPKHFISMVDVQEVLENLCETLIKELDFKNEAEAMKRFRANNKRVVCLGVPEVY | not soluble
NEKFRPEMLQGKKVIVTGASKGIGREIAYHLAKMGAHVVVTARSKEALQKVVARCLELGAASAHYIAGSMEDMTFAEEFVAEAGNLMGGLDMLILNHVLYNRLTFFHGEIDNVRKSMEVNFHSFVVLSVAAMPMLMQSQGSIAVVSSVAGKITYPLIAPYSASKFALDGFFSTLRSEFLVNKVNVSITLCILGLIDTETAIKATSGIYLGPASPKEECALEIIKGTALRQDEMYYVGSRWVPYLLGNPGRKIMEFLSAAEYNWDNVLSNEKLYGRWA | soluble
